Results taken from patent EP2922560B1.

Target: native human IL-23 receptor on the surface of cultured human cells (K-562, THP-1, Jurkat) and primary human T-cells (human) (UniProt Q5VWK5)
Experiment: cell-based or functional assay

native human IL-23 receptor on the surface of cultured human cells (K-562, THP-1, Jurkat) and primary human T-cells (human), sequence (Q5VWK5 24-629): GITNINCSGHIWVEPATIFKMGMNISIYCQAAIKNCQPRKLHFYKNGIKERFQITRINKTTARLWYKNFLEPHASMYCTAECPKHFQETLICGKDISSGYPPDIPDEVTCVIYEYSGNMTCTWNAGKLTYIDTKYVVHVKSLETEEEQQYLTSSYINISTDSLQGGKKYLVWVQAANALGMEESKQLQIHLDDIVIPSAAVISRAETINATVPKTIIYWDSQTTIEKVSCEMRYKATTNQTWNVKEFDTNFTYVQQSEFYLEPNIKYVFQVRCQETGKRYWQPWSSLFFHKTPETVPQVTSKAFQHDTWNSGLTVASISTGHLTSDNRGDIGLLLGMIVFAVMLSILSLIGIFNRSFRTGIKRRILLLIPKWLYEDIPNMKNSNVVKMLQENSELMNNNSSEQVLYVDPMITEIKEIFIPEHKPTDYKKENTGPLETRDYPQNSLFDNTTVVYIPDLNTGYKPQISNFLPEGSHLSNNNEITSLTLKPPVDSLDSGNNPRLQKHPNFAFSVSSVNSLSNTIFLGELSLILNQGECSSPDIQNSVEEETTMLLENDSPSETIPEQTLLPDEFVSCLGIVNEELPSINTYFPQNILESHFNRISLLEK

Th-17+ cell expansion (IL-17-producing cells) in PBMC suspensions after 3 days, normalized to IL-23 only = 1 (normalized cell count (IL-23 only = 1)): 0.88 | Th-17+ cell expansion in separated T-cell samples after 3 days, normalized to IL-23 only = 1 (normalized cell count (IL-23 only = 1)): 0.99
Substance: His6-ABDwt-TolA-AVI (from UniProt P19934 131-421)
